# Measurements taken from patent US20240277831A1 (University of Washington, published 2024).
# B1: monomeric human ACE2 (hACE2) ectodomain (receptor)
# chain: STIEEQAKTFLDKFNHEAEDLFYQSSLASWNYNTNITEENVQNMNNAGDKWSAFLKEQSTLAQMYPLQEIQNLTVKLQLQALQQNGSSVLSEDKSKRLNTILNTMSTIYSTGKVCNPDNPQECLLLEPGLNEIMANSLDYNERLWAWESWRSEVGKQLRPLYEEYVVLKNEMARANHYEDYGDYWRGDYEVNGVDGYDYSRGQLIEDVEHTFEEIKPLYEHLHAYVRAKLMNAYPSYISPIGCLPAHLLGDMWGRFWTNLYSLTVPFGQKPNIDVTDAMVDQAWDAQRIFKEAEKFFVSVGLPNMTQGFWENSMLTDPGNVQKAVCHPTAWDLGKGDFRILMCTKVTMDDFLTAHHEMGHIQYDMAYAAQPFLLRNGANEGFHEAVGEIMSLSAATPKHLKSIGLLSPDFQEDNETEINFLLKQALTIVGTLPFTYMLEKWRWMVFKGEIPKDQWMKKWWEMKREIVGVVEPVPHDETYCDPASLFHVSNDYSFIRYYTGTLYQFQFQEALCQAAKHEGPLHKCDISNSTEAGQKLFNMLRLGKSEPWTLALENVVGAKNMNVRPLLNYFEPLFTWLKDQNKNSFVGWSTDWSPYADPLVPR
# How the values were obtained:
# Monomeric SARS-CoV-2 RBD = Monomeric SARS-CoV-2 RBD (SARS-CoV-2, UniProt P0DTC2 328-531)
# [1] = target: RBD-8GS-I53-50A trimeric component (SARS-CoV-2)
# [2] = target: RBD-12GS-I53-50A trimeric component (SARS-CoV-2)
binder,measurement,setting,value
B1,Kd,Monomeric SARS-CoV-2 RBD,69 nM
same,koff,Monomeric SARS-CoV-2 RBD,0.005 s⁻¹
same,kon,Monomeric SARS-CoV-2 RBD,70000 M⁻¹ s⁻¹
same,Kd,[1],70 nM
same,koff,[1],0.004 s⁻¹
same,kon,[1],60000 M⁻¹ s⁻¹
same,Kd,[2],78 nM
same,koff,[2],0.005 s⁻¹
same,kon,[2],60000 M⁻¹ s⁻¹
